Test results: paper PMC11313276, “Structures of Mature and Urea-Treated Empty Bacteriophage T5: Insights into Siphophage Infection and DNA Ejection” (International Journal of Molecular Sciences, 2024)

B1: decoration protein pb10 (natural protein, bacteriophage T5, UniProt Q6QGD6 1-164, looked up)
chain: MIDYSGLRTIFGEKLPESHIFFATVAAHKYVPSYAFLRRELGLSSAHTNRKVWKKFVEAYGKAIPPAPPAPPLTLSKDLTASMSVEEGAALTLSVTATGGTGPYTYAWTKDGSPIPDASGATYTKPTAAAEDAGSYKVTVTDSKQVSKDSTTCAVTVNPTVPGG
notes: decoration protein pb10 of bacteriophage T5, 164 residues; alpha-helical domain and Ig-like domain; only residues 2-68 (alpha-helical domain) were resolved; One pb10 at the centre of each hexon; the Ig-like domain is flexible and was not modelled; also called gp10
B2: baseplate hub protein pb3 (natural protein, bacteriophage T5)
chain: MKKILDSAKNYLNTHDKLKTACLIALELPSSSGSAATYIYLTDYFRDVTYNGILYRSGKVKSISSHKQNRQLSIGSLSFTITGTAEDEVLKLVQNGVSFLDRGITIHQAIINEEGNILPVDPDTDGPLLFFRGRITGGGIKDNVNTSGIGTSVITWNCSNQFYDFDRVNGRYTDDASHRGLEVVNGTLQPSNGAKRPEYQEDYGFFHSNKSTTILAKYQVKEERYKLQSKKKLFGLSRSYSLKKYYETVTKEVDLDFNLAAKFIPVVYGVQKIPGIPIFADTELNNPNIVYVVYAFAEGEIDGFLDFYIGDSPMICFDETDSDTRTCFGRKKIVGDTMHRLAAGTSTSQPSVHGQEYKYNDGNGDIRIWTFHGKPDQTAAQVLVDIAKKKGFYLQNQNGNGPEYWDSRYKLLDTAYAIVRFTINENRTEIPEISAEVQGKKVKVYNSDGTIKADKTSLNGIWQLMDYLTSDRYGADITLDQFPLQKVISEAKILDIIDESYQTSWQPYWRYVGWNDPLSENRQIVQLNTILDTSESVFKNVQGILESFGGAINNLSGEYRITVEKYSTNPLRINFLDTYGDLDLSDTTGRNKFNSVQASLVDPALSWKTNSITFYNSKFKEQDKGLDKKLQLSFANITNYYTARSYADRELKKSRYSRTLSFSVPYKFIGIEPNDPIAFTYERYGWKDKFFLVDEVENTRDGKINLVLQEYGEDVFINSEQVDNSGNDIPDISNNVLPPRDFKYTPTPGGVVGAIGKNGELSWLPSLTNNVVYYSIAHSGHVNPYIVQQLENNPNERMIQEIIGEPAGLAIFELRAVDINGRRSSPVTLSVDLNSAKNLSVVSNFRVVNTASGDVTEFVGPDVKLAWDKIPEEEIIPEIYYTLEIYDSQDRMLRSVRIEDVYTYDYLLTYNKADFALLNSGALGINRKLRFRIRAEGENGEQSVGWATI
notes: baseplate hub protein pb3 of bacteriophage T5
B3: tail tube protein (TTP) pb6 (natural protein, bacteriophage T5)
chain: MSLQLLRNTRIFVSTVKTGHNKTNTQEILVQDDISWGQDSNSTDITVNEAGPRPTRGSKRFNDSLNAAEWSFSTYILPYKDKNTSKQIVPDYMLWHALSSGRAINLEGTTGAHNNATNFMVNFKDNSYHELAMLHIYILTDKTWSYIDSCQINQAEVNVDIEDIGRVTWSGNGNQLIPLDEQPFDPDQIGIDDETYMTIQGSYIKNKLTILKIKDMDTNKSYDIPITGGTFTINNNITYLTPNVMSRVTIPIGSFTGAFELTGSLTAYLNDKSLGSMELYKDLIKTLKVVNRFEIALVLGGEYDDERPAAILVAKQAHVNIPTIETDDVLGTSVEFKAIPSDLDAGDEGYLGFSSKYTRTTINNLIVNGDGATDAVTAITVKSAGNVTTLNRSATLQMSVEVTPSSARNKEVTWAITAGDAATINATGLLRADASKTGAVTVEATAKDGSGVKGTKVITVTAGG
notes: tail tube protein pb6 of bacteriophage T5; domains pb6D1, pb6D2 and a protruding Ig-like domain; atomic model built for residues 3-378 (pb6D1 and pb6D2); The tail tube has 40 stacked trimeric rings
B4: p140 (natural protein, bacteriophage T5)
chain: MFYSLMRESKIVIEYDGRGYHFDALSNYDASTSFQEFKTLRRTIHNRTNYADSIINAQDPSSISLAINFSTTLIESNFFDWMGFTREGNSLFLPRNTPNIEPIMFNMYIINHNNSCIYFENCYVSTVDFSLDKSIPILNVGIESGKFSEVSTFRDGYTITQGEVLPYSAPAVYTNSSPLPALISASMSFQQQCSWREDRNIFDINKIYTNKRAYVNEMNASATLAFYYVKRLVGDKFLNLDPETRTPLIIKNKYVSITFPLARISKRLNFSDLYQVEYDVIPTADSDPVEINFFGERK
notes: tail tip complex protein p140 of bacteriophage T5
B5: major capsid protein (MCP) pb8 (natural protein, bacteriophage T5, UniProt Q6QGD8 160-458, looked up)
chain: AVNQSSSVEVSSESYETIFSQRIIRDLQKELVVGALFEELPMSSKILTMLVEPDAGKATWVAASTYGTDTTTGEEVKGALKEIHFSTYKLAAKSFITDETEEDAIFSLLPLLRKRLIEAHAVSIEEAFMTGDGSGKPKGLLTLASEDSAKVVTEAKADGSVLVTAKTISKLRRKLGRHGLKLSKLVLIVSMDAYYDLLEDEEWQDVAQVGNDSVKLQGQVGRIYGLPVVVSEYFPAKANSAEFAVIVYKDNFVMPRQRAVTVERERQAGKQRDAYYVTQRVNLQRYFANGVVSGTYAAS
notes: major capsid protein pb8 of bacteriophage T5, 458 residues; atomic model built for residues 164-457; also called MCP gp8; gp8
B6: distal tail protein pb9 (natural protein, bacteriophage T5)
chain: MRLPDPYTNPEYPGLGFESVNLVDNDPMIRDELPNGKVKEVKISAQYWGINISYPELFPDEYAFLDSRLLEYKRTGDYLDVLLPQYEAFRVRGDTKSVTIPAGQKGSQIILNTNGTLTGQPKAGDLFKLSTHPKVYKITNFSSSGNVWNISLYPDLFITTTGSEKPVFNGILFRTKLMNGDSFGSTLNNNGTYSGISLSLRESL
notes: distal tail protein pb9 of bacteriophage T5
B7: portal protein pb7 (natural protein, bacteriophage T5)
chain: LNPGQRIIRDMEPVSHRTNRKPFTTGQAYSKIEILNRTANMVIDSAAECSYTVGDKYNIVTYANGVKTKTLDTLLNVRPNPFMDISTFRRLVVTDLLFEGCAYIYWDGTSLYHVPAALMQVEADANKFIKKFIFNNQINYRVDEIIFIKDNSYVCGTNSQISGQSRVATVIDSLEKRSKMLNFKEKFLDNGTVIGLILETDEILNKKLRERKQEELQLDYNPSTGQSSVLILDGGMKAKPYSQISSFKDLDFKEDIEGFNKSICLAFGVPQVLLDGGNNANIRPNIELFYYMTIIPMLNKLTSSLTFFFGYKITPNTKEVAALTPDKEAEAKHLTSLVNNGIITGNEARSELNLEPLDDEQMNKIRIPANVAGSATGVSGQEGGRPKGSTEGD
notes: portal protein pb7 of bacteriophage T5, 403 residues in total; atomic model built for residues 11-377; source: also in virions treated with 4 M urea for 2 h at 37 °C and dialyzed; copies: 12

Tests used:
Experiment in all cases: cryo-EM structure; mature T5 virions (fiberless mutant) purified by CsCl gradients, in buffer A (100 mM NaCl, 1 mM MgSO4, 1 mM CaCl2, 10 mM Tris-HCl, pH 7.6); icosahedral, symmetry-mismatch and local reconstructions of head, portal, connector, tail tube and tail tip
[1] = target: adaptor protein p144 (bacteriophage T5)
[2] = target: tail terminator protein p142 (bacteriophage T5)
[3] = target: B5; conditions: both partners purified
[4] = target: the molecule itself

| Molecule | stoichiometry N [4] | other results |
| --- | --- | --- |
| adaptor protein p144 (natural protein) |  | stoichiometry N [1]: 12 |
| tail terminator protein p142 (natural protein) |  | stoichiometry N [2]: 6 |
| B1 |  | binding result [3]: binds |
| B2 | 3 |  |
| B3 | 3 |  |
| B4 | 3 |  |
| B5 | 775 |  |
| B6 | 6 |  |
| B7 | 12 |  |
